Test results reported in PMC2756588.

T1: Abp1, P15891
T1 sequence (P15891 535-592, looked up): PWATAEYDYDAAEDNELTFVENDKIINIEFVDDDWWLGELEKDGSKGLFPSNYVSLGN

T2: Bbc1, P47068
T2 sequence (P47068 1-78, looked up): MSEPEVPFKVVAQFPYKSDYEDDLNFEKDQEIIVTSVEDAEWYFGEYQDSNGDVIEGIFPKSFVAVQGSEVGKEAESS

T3: Boi1, P38041
T3 sequence (P38041 1-86, looked up): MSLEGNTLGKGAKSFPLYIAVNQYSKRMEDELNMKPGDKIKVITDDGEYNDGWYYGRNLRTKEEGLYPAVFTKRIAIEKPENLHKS

T4: Boi2, P39969
T4 sequence (P39969 32-116, looked up): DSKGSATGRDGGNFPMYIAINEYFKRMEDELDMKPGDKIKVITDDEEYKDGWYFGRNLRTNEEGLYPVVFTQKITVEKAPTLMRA

T5: Bud14, P27637
T5 sequence (P27637 247-328, looked up): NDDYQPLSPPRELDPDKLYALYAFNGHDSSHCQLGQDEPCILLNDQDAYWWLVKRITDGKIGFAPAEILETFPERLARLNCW

T6: Bzz1-1, P38822
T6 sequence (P38822 478-572, looked up): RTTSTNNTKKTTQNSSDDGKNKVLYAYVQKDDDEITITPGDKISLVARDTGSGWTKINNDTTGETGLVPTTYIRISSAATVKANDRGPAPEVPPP

T7: Bzz1-2, P38822
T7 sequence (P38822 568-633, looked up): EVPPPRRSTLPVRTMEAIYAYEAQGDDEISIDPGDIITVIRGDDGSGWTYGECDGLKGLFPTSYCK

T8: Cdc25, P04821
T8 sequence (P04821 50-136, looked up): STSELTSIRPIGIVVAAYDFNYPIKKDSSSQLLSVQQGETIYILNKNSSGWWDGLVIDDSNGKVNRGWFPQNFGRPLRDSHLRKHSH

T9: Cyk3, Q07533
T9 sequence (Q07533 1-83, looked up): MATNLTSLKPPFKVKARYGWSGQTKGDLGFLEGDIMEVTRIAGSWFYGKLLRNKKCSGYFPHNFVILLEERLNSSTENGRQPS

T10: Fus1, P11710
T10 sequence (P11710 432-512, looked up): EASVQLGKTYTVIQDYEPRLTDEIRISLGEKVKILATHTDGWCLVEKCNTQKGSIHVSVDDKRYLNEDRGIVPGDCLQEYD

T11: Hof1, Q05080
T11 sequence (Q05080 590-669, looked up): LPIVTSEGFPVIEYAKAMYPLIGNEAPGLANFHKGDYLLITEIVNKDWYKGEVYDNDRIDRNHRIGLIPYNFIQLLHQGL

T12: Hse1, P38753
T12 sequence (P38753 208-285, looked up): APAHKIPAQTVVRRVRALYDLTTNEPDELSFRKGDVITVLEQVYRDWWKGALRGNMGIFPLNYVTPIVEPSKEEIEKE

T13: Lsb1, P53281
T13 sequence (P53281 45-122, looked up): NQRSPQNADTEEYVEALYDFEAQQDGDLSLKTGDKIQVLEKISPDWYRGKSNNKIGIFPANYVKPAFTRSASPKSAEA

T14: Lsb3, P43603
T14 sequence (P43603 385-451, looked up): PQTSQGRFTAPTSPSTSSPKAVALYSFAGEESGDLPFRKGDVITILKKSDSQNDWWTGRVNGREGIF

T15: Lsb4, P32793
T15 sequence (P32793 402-468, looked up): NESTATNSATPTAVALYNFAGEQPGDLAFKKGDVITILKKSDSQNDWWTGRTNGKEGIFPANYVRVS

T16: Myo5, Q04439
T16 sequence (Q04439 1072-1160, looked up): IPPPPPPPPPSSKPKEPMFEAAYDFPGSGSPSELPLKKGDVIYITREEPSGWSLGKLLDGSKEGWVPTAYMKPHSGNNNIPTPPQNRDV

T17: Nbp2, Q12163
T17 sequence (Q12163 103-180, looked up): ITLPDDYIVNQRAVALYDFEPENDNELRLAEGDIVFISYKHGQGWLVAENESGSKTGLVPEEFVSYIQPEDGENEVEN

T18: Pex13, P80667
T18 sequence (P80667 295-386, looked up): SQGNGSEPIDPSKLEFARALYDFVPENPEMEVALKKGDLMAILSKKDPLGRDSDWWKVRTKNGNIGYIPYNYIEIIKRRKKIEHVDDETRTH

T19: Pin3, Q06449
T19 sequence (Q06449 53-122, looked up): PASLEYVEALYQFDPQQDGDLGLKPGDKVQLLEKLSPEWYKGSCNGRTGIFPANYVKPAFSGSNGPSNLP

T20: Sla1-2, P32790
T20 sequence (P32790 60-140, looked up): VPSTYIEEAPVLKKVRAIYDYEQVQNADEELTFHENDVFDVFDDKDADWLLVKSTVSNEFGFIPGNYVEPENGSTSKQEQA

T21: Sla1-3, P32790
T21 sequence (P32790 344-424, looked up): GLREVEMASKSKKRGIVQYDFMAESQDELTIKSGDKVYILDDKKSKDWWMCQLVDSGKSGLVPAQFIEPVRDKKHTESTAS


Key:
Experiment in all cases: SPOT array
Abp1, P15891 = molecular target: T1, Abp1, P15891; details: median of control spots 935
Bbc1, P47068 = molecular target: T2, Bbc1, P47068; details: median of control spots 796
Bem1-1, P29366 = details: median of control spots 4282
Bem1-2, P29366 = details: median of control spots 4347
Boi1, P38041 = molecular target: T3, Boi1, P38041; details: median of control spots 1162
Boi2, P39969 = molecular target: T4, Boi2, P39969; details: median of control spots 1161
Bud14, P27637 = molecular target: T5, Bud14, P27637; details: median of control spots 956
Bzz1-1, P38822 = molecular target: T6, Bzz1-1, P38822; details: median of control spots 4446
Bzz1-2, P38822 = molecular target: T7, Bzz1-2, P38822; details: median of control spots 4538
Cdc25, P04821 = molecular target: T8, Cdc25, P04821; details: median of control spots 969
Cyk3, Q07533 = molecular target: T9, Cyk3, Q07533; details: median of control spots 1451
Fus1, P11710 = molecular target: T10, Fus1, P11710; details: median of control spots 1200
GST = details: median of control spots 978
Hof1, Q05080 = molecular target: T11, Hof1, Q05080; details: median of control spots 4086
Hse1, P38753 = molecular target: T12, Hse1, P38753; details: median of control spots 1727
Lsb1, P53281 = molecular target: T13, Lsb1, P53281; details: median of control spots 388
Lsb3, P43603 = molecular target: T14, Lsb3, P43603; details: median of control spots 406
Lsb4, P32793 = molecular target: T15, Lsb4, P32793; details: median of control spots 397
Myo3, P36006 = details: median of control spots 468
Myo5, Q04439 = molecular target: T16, Myo5, Q04439; details: median of control spots 471
Nbp2, Q12163 = molecular target: T17, Nbp2, Q12163; details: median of control spots 357
Pex13, P80667 = molecular target: T18, Pex13, P80667; details: median of control spots 1341
Pin3, Q06449 = molecular target: T19, Pin3, Q06449; details: median of control spots 2171
Rvs167, P39743 = details: median of control spots 2707
Sho1, P40073 = details: median of control spots 1148
Sla1-2, P32790 = molecular target: T20, Sla1-2, P32790; details: median of control spots 712
Sla1-3, P32790 = molecular target: T21, Sla1-3, P32790; details: median of control spots 5475

Sequence of Sho1, P40073 (P40073 287-367): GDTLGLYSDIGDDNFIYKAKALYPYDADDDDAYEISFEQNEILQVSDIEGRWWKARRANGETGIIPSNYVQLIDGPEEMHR
Sequence of Rvs167, P39743 (P39743 419-482): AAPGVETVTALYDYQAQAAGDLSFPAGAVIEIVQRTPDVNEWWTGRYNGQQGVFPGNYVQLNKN
Sequence of Bem1-2, P29366 (P29366 139-227): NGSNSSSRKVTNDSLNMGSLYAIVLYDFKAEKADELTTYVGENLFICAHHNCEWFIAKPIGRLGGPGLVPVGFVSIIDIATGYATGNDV
Sequence of Bem1-1, P29366 (P29366 55-141): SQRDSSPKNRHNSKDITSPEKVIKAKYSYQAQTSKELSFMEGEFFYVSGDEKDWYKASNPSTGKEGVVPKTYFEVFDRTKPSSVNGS

Row | Binder | SPOT intensity (Abp1, P15891) | SPOT intensity (Bbc1, P47068) | SPOT intensity (Bem1-1, P29366) | SPOT intensity (Bem1-2, P29366) | SPOT intensity (Boi1, P38041) | SPOT intensity (Boi2, P39969) | SPOT intensity (Bud14, P27637) | SPOT intensity (Bzz1-1, P38822) | SPOT intensity (Bzz1-2, P38822) | SPOT intensity (Cdc25, P04821) | SPOT intensity (Cyk3, Q07533) | SPOT intensity (Fus1, P11710) | SPOT intensity (GST) | SPOT intensity (Hof1, Q05080) | SPOT intensity (Hse1, P38753) | SPOT intensity (Lsb1, P53281) | SPOT intensity (Lsb3, P43603) | SPOT intensity (Lsb4, P32793) | SPOT intensity (Myo3, P36006) | SPOT intensity (Myo5, Q04439) | further results
1 | NRARYLPQNPDIIAG | 5 | 2 | 0 | 0 | 3 | 0 | 11 | 0 | 0 | 9 | 0 | 0 | 0 | 4 | 3 | 1 | 1 | 0 | 0 | 0 | SPOT intensity (Nbp2, Q12163): 1; SPOT intensity (Pex13, P80667): 0; SPOT intensity (Pin3, Q06449): 2; SPOT intensity (Rvs167, P39743): 0; SPOT intensity (Sho1, P40073): 10; SPOT intensity (Sla1-2, P32790): 0; SPOT intensity (Sla1-3, P32790): 11
2 | NFKRLLPRDPSEKSS | 41 | 51 | 0 | 11 | 4 | 2 | 12 | 1 | 10 | 50 | 3 | 145 | 0 | 15 | 72 | 0 | 0 | 0 | 6 | 0 | SPOT intensity (Nbp2, Q12163): 12; SPOT intensity (Pex13, P80667): 7; SPOT intensity (Pin3, Q06449): 7; SPOT intensity (Rvs167, P39743): 0; SPOT intensity (Sho1, P40073): 51; SPOT intensity (Sla1-2, P32790): 0; SPOT intensity (Sla1-3, P32790): 156
3 | LRWRHKFFLPAIAAI | 0 | 18 | 0 | 1 | 1 | 0 | 10 | 1 | 0 | 26 | 4 | 53 | 0 | 0 | 21 | 0 | 0 | 0 | 0 | 0 | SPOT intensity (Nbp2, Q12163): 0; SPOT intensity (Pex13, P80667): 3; SPOT intensity (Pin3, Q06449): 4; SPOT intensity (Rvs167, P39743): 0; SPOT intensity (Sho1, P40073): 9; SPOT intensity (Sla1-2, P32790): 0; SPOT intensity (Sla1-3, P32790): 24
4 | YVRRRPRVRLEPLLS | 101 | 273 | 0 | 15 | 13 | 17 | 26 | 0 | 15 | 156 | 4 | 19 | 9 | 20 | 54 | 13 | 0 | 3 | 5 | 1 | SPOT intensity (Nbp2, Q12163): 16; SPOT intensity (Pex13, P80667): 2; SPOT intensity (Pin3, Q06449): 2; SPOT intensity (Rvs167, P39743): 0; SPOT intensity (Sho1, P40073): 102; SPOT intensity (Sla1-2, P32790): 3; SPOT intensity (Sla1-3, P32790): 44
